Assays:
[1] = target: Bovine κ-casein labelled with EDANS-C2-maleimide (donor) or DABCYL-C2-maleimide (acceptor) (bovine); test: FRET or BRET; time-resolved FRET titration; donor (EDANS) κ-casein constant at 0.01% (5 μM), acceptor (DABCYL) κ-casein 0.01-0.38% (5-200 μM); in H2O, 293 K; indefinite isodesmic association, adding a monomer to an associate
[2] = target: Bovine κ-casein labelled with EDANS-C2-maleimide (donor) or DABCYL-C2-maleimide (acceptor) (bovine); test: FRET or BRET; as the FRET titration but with 5 mM sodium phosphate buffer added; data not shown
Bovine κ-casein (bovine) [3] = test: PFG NMR diffusion; κ-casein 20% (w/v) in 100% D2O, 298 K; MODSTE pulse sequence, td 50-800 ms; gel-like network
Bovine κ-casein (bovine) [4] = test: PFG NMR diffusion; κ-casein 0.1 to 10% (w/v) in 100% D2O, pH 7.0, 298 K; STE and MODSTE pulse sequences, td 50-800 ms; fresh samples; below the threshold of gel formation

Substance	Kd [1] [µM]	fold decrease of the equilibrium association constant with 5 mM sodium phosphate buffer against the aqueous solution [2] [fold]	lifetime of molecules within the gel network (20% solution) (Bovine κ-casein (bovine) [3]) [s]	percent of molecules in the gel network (20% solution) (Bovine κ-casein (bovine) [3]) [%]	fraction of molecules within the associate, pmin(0) (0.5% solution) (Bovine κ-casein (bovine) [4])	lifetime of molecules within the associate (0.5% solution) (Bovine κ-casein (bovine) [4]) [s]	stoichiometry N (Bovine κ-casein (bovine) [4]) [molecules]
Bovine κ-casein labelled with EDANS-C2-maleimide (donor) or DABCYL-C2-maleimide (acceptor) (natural protein)	9.5	3					
Bovine κ-casein (natural protein)			0.98	34	0.23	0.53	< 31
